Experiments:
Myc-GST融合蛋白 [1] = test: ELISA, Myc-GST coated at 5 μg/mL, HRP anti-His second antibody, heat test at 70℃ for 30 min
Myc-GST融合蛋白 [2] = test: ELISA, Myc-GST coated at 5 μg/mL, HRP anti-His second antibody, heat test at 80℃ for 30 min
Myc-GST融合蛋白 [3] = test: ELISA, Myc-GST coated at 5 μg/mL, HRP anti-His second antibody, heat test at 90℃ for 30 min

B1: 抗c-Myc标签单域重链抗体 (VHH, not shown: small tags and cut ends)
VHH: QLQLVESGGGEVHPGGSLTLSCEVSGINPAYYAIGWFHQSPGKEREGVACISQGGAKTNYADSVKGRFTISRDSAKNTVYLHMNSLQSEDTGSYYCARRRGAYCTESNSAGDYASWGQGTQVTVST
Myc-GST融合蛋白 [1]
  OD450: 1.4
Myc-GST融合蛋白 [2]
  OD450: 1.3
Myc-GST融合蛋白 [3]
  OD450: 1.1

From patent CN107042091A
